Some results are limits rather than exact numbers.

Assay [1] deals with human MHC Class II molecules expressed on cells (human). Put plainly: flow cytometry on Daudi cells, GAH-FITC detection, no preincubation. For orientation: In flow cytometry, cells or beads pass a laser one at a time.
The target is the same in assay [2]. Put plainly: flow cytometry on Daudi cells preincubated with the competitor soluble CHO/LAG-3D1D2, GAH-FITC detection.
Assay [3] shares this target. Briefly: cell-based or functional assay.
Assay [4] shares this target. Briefly: competition by flow cytometry on Daudi cells; soluble CHO/LAG-3D1D2 first, then dimeric LAG-3D1D4Ig.
Assay [5] has the same target. Put plainly: competition by flow cytometry on Daudi cells; soluble CHO/LAG-3D1D2 first, then monomeric LAG-3D1D2Ig.

For “LAG-3 D1-D4 Ig (from UniProt P01857 99-330) (Fc fusion)”, the figures for the Mean Fluorescence in assay [1] and in assay [2] were 20.8 and 8.5, respectively. This substance also had an inhibition of the proliferation of clone T154 preincubated with cross-linked LAG-3Ig in assay [3] greater than 50%.

In assay [1], “LAG-3 D1D2 Ig (from UniProt P01857 99-330) (Fc fusion)” came in with a Mean Fluorescence of 62.5.

In assay [4], “soluble LAG-3 D1D2 fragment produced by CHO cells (receptor)” displayed a percent inhibition of the binding of dimeric LAG-3D1D4Ig of 58%. In assay [5], this substance came in with a percent inhibition of the binding of monomeric LAG-3D1D2Ig of 27%.

The values above are taken from patent USRE38313.
